Data on 2 substances can be found in article PMC4991664.

The experiment deals with Atad2-tag (endogenous mouse Atad2 with a C-terminal 6xHis-Flag-Ha TAP tag, knock-in) (mouse (endogenous in 46C ES cells)) (UniProt Q8CDM1). The experiment can be described thus: co-IP; anti-Flag immunoprecipitation of protein extracts of 46C^tag and parental 46C ES cells; western blot with anti-H4 and anti-acetylated H4, compared with dilutions of the input. Background: In western blotting, separated proteins are transferred to a membrane and probed.
Chain of UniProt Q8CDM1 (Q8CDM1 whole entry): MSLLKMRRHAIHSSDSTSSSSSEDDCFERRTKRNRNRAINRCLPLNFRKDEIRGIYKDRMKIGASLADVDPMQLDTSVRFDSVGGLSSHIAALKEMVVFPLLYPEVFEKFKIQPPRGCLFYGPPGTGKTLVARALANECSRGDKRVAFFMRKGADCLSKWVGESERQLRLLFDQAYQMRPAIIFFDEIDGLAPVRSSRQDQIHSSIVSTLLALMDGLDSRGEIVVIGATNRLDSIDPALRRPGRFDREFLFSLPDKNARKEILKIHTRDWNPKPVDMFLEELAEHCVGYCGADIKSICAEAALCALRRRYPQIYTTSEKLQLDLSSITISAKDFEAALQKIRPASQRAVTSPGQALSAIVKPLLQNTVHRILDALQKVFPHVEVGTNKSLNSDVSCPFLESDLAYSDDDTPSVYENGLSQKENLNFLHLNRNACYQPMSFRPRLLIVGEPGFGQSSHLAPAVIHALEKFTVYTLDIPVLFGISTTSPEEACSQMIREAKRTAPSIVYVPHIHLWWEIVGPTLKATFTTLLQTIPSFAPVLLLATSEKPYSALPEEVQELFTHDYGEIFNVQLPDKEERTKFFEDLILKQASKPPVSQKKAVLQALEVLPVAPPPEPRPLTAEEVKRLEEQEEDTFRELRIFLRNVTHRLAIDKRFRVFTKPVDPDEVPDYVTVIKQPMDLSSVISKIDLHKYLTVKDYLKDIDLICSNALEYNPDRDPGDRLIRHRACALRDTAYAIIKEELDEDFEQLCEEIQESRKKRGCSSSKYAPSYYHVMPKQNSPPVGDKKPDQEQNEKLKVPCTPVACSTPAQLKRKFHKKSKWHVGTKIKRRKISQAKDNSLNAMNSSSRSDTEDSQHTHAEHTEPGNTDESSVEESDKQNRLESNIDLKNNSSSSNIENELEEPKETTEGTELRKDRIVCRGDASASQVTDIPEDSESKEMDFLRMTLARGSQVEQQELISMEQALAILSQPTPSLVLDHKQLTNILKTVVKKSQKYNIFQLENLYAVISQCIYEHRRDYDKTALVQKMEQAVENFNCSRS

On to “histone H4 (from UniProt P62806 1-103) (natural protein)”, for which the fraction of the input immunoprecipitated (fraction of the input) was found to be 0.01.
For the substance “acetylated histone H4 (from UniProt P62806 1-103) (natural protein)”, the fraction of the input immunoprecipitated (fraction of the input) came to 0.02.
